Laboratory results taken from patent US20180118815A1.
pKd: −log10 of the molar value.

How the values were obtained:
[1] = target: HIV-1 Env gp140 89.6 (HIV-1 isolate 89.6) (UniProt Q73372); assay: SPR, Biacore X100, single-cycle, analytes at 0.1-1,000 nM on gp140 89.6, bivalent binding model
[2] = target: HIV-1 Env gp140 89.6 (HIV-1 isolate 89.6) (UniProt Q73372); assay: ELISA, gp140 89.6 coated at 2 µg/ml, detection with HRP goat anti-human IgG (Fab-specific)
[3] = target: HIV-1 Env gp140 89.6 (HIV-1 isolate 89.6) (UniProt Q73372); assay: ELISA on coated gp140 89.6 and SPR (Biacore X100, single-cycle, bivalent model)

Substance “MD13 (MD mutant with S64E/S66V in CH1 and S69L/T71S in CK)” has a pKd [1] of 7.77, a koff [1] of 0.00081 s⁻¹ and a kon [1] of 47000 M⁻¹ s⁻¹. For the same substance, the EC50 (read off the curve) [2] was 1 to 10 nM and the fold higher affinity than MD [3] was 1000 fold.

“MD (mD1.22-CH1/m36.4-CK heterodimer, wild-type CH1-CK)” gave a pKd [1] of 4.80, a koff [1] of 0.077 s⁻¹ and a kon [1] of 4800 M⁻¹ s⁻¹.
